Data reported in the supplement of paper PMC10567573.

B1: ZNF263 (parent)
chain: EKPYKCPECGEIFAHSSNLLRHQR

Variants of: B1
Assay: protein stability index of a GFP-peptide fusion (GPS, HEK-293T) (PSI 1-6); higher = more stable
Settings: c terminus: a fixed tail appended
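Note: lentivirally expressed fusions sorted by FACS into six bins by GFP to DsRed ratio, PSI derived from sequencing read proportions per bin multiplied by bin number.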

Protein stability index of substitutions, site by site:
K5: H 2.38 | S 2.64 | I 3.39 | T 3.41 | A 2.91 | P 2.55 | Y 2.2 | D 2.24 | Q 3.12 | E 3.02 | W 2.46 | F 2.66 | N 2.5 | R 2.61 | V 2.62 | G 2.31 | L 2.39 | C 1.52
E11: W 2.42 | Y 3.05 | R 3.09 | N 1.73 | F 1.79 | M 1.72 | V 1.64 | L 1.76 | G 1.98 | I 2.19 | H 1.89 | A 2.03 | T 2.1 | C 2.25 | Q 2.68 | P 1.85 | K 3 | D 2.38 | S 1.13
I12: C 1.26 | A 2.29
Y4: N 2.45 | Q 3.06 | K 2.73 | P 2.12 | F 2.15 | S 2.52 | L 2.47 | R 2.48 | T 2.91 | I 2.76 | G 2.85 | E 2.99 | C 2.48 | V 3.51 | M 1.84 | W 2.29
P3: Y 3.04 | D 3.11 | N 1.39 | W 2.83 | A 2.29 | V 2.13 | F 2.69 | M 2.78 | C 2.1 | T 2.85 | K 1.52 | Q 1.78 | H 1.88 | E 2.91 | R 1.89 | S 2.09 | I 1.82 | L 2.57
C9: P 3.86 | H 2.56 | E 4.06 | A 3.62 | M 3.83 | W 2.34 | I 2.72 | N 3.48 | R 3.73 | V 2.92 | K 3.5 | D 3.74 | Q 4.07 | F 2.71 | T 3.02 | L 2.93 | G 3.84 | Y 3.45 | S 3.72
G10: I 1.79 | K 2.31 | T 1.92 | A 1.88 | Y 1.69 | M 1.91 | S 2.12 | H 2.59 | C 1.94 | Q 1.84 | W 2.14 | N 1.58 | V 1.78 | P 2.82 | F 2.03 | L 1.74 | D 2.98 | R 2.37
E8: R 2.85 | M 1.95 | Y 2.86 | N 2.1 | S 2.28 | T 2.74 | K 3.12 | C 3.16 | F 2 | I 2.04 | A 2.51 | D 3.18 | W 1.88 | P 2.74 | Q 1.71 | V 2.27 | H 3.07 | L 2.37
K2: W 2.32 | V 3 | Y 3.34
P7: G 2.14 | S 2.8 | I 2.28 | L 2.33 | T 1.82 | A 2.24 | V 2.68 | W 2.29 | R 1.62 | Y 2.7 | K 1.49 | D 3.71 | C 1.67 | M 2.49 | H 2.25 | N 2.21 | Q 2.46 | E 2.85 | F 2.37
C6: I 3.23 | T 3.45 | H 2.71 | L 3.19 | D 3.49 | N 3.74 | W 2.47 | F 3.46 | V 3.35 | Y 3.05 | P 3.76 | K 3.03 | Q 3.6 | A 3.37 | S 2.88 | E 3.76 | R 3.08
